Source: the supplement of paper PMC10567573

B1: C10orf62 (parent)
chain: RALEEVEMKLQKNFLTQRENTIAG
B2: DFFB (parent)
chain: TLVEAIKEQDGREVDWEYFYGLLF

Variants of: B1
Test: protein stability index of a GFP-peptide fusion (GPS, HEK-293T) (PSI 1-6); higher = more stable
Conditions: c terminus: a fixed tail appended
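Note: lentivirally expressed fusions sorted by FACS into six bins by GFP to DsRed ratio, PSI derived from sequencing read proportions per bin multiplied by bin number.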

Protein stability index: each site, then its substitutions
L15: M 3.62 | R 3.94 | P 3.89 | V 3.77 | H 3.85 | K 4.21 | Q 4.84 | W 2.63 | N 3.99
K9: S 3.06 | C 2.41 | A 3.09 | W 1.4 | H 2.93 | E 3.9 | M 2.79 | T 3.4 | L 1.73
K12: V 2.31 | Y 2.3 | I 2.15 | L 2.67 | A 3.77 | P 4.14 | Q 3.72 | M 2.86
Q17: E 3.96 | W 2.92 | A 3.42 | N 3.89 | Y 2.48 | G 3.73 | P 3.69
G24: D 4.37 | C 3.23 | V 2.85 | T 3.76 | S 3.43 | H 3.07 | M 3.08 | A 3.4 | Q 3.6
E5: G 3.6 | R 3.12 | A 2.7 | D 3.67 | V 1.51 | Q 3.22
I22: S 3.88 | D 4.11 | H 3.8 | P 3.38 | F 2.68 | G 4.34 | W 2.38 | R 3.15 | N 3.98 | A 4.15 | V 3.59
L10: H 4 | T 4.4 | Y 3.67 | V 4.04
R1: Y 3.29 | A 3.89 | E 4.39 | I 2.91 | P 4.55 | Q 3.5 | G 4.34 | D 4.49
A23: C 3.36 | V 3.44 | H 3.19 | M 3.05 | T 3.67 | G 3.41 | I 3.02 | F 2.66 | N 3.2 | W 2.07
E19: F 1.86 | R 3.12 | W 2.05 | T 2.92 | L 2.04 | I 2.04 | V 2.3 | H 3.13
Q11: W 1.98 | I 2.13 | A 3.31 | M 2.64 | N 3.51 | E 4.28 | S 3.48 | C 3.52 | D 4.43 | F 2.44 | H 2.94 | V 2.82 | G 3.63
L3: D 4.8 | N 4.91 | W 2.95 | A 4.17 | K 4.33 | Y 3.5 | M 3.86 | T 4.12 | G 4.31 | R 4.09 | E 5.08 | P 4.26
A2: Q 4.32 | C 3.27 | D 4.1 | H 3.55 | P 4.4 | L 2.61 | W 2.29 | G 4.1
E4: C 3.31 | W 1.92 | A 2.9 | S 3.64 | K 3.36 | I 1.99 | G 4.05 | D 3.44
N13: T 3.31 | S 3.52 | V 3 | P 3.96 | M 3.02 | W 1.36 | K 3.3
T16: L 2.79 | V 3.16 | M 3.23 | P 3.09 | C 3.24 | K 3.54 | I 3.06 | R 2.81 | H 3.44 | Y 2.74
T21: F 2.86 | G 3.23 | C 3.73 | P 3.7 | N 3.61 | R 3.2 | A 3.56 | K 3.51 | D 3.92
N20: P 3.73 | S 3.7 | I 2.61 | L 2.45 | F 2.52 | Q 3.81 | Y 2.64 | C 3.07 | A 3.24
R18: V 2.35 | A 3.19 | Y 2.64 | H 3.96 | N 4.05 | T 3.46 | C 2.91 | G 3.73 | Q 3.85
V6: W 3.76 | M 3.23 | F 3.76 | S 4.27 | K 4.43 | A 3.19 | L 3.52 | Q 3.93 | P 4.17
M8: V 3.35 | Y 3.6 | F 3.65 | P 3.94 | K 2.63 | E 4.92
E7: N 3.61 | V 1.27 | H 2.17 | G 2.84 | S 2.97 | R 2.29 | K 1.96
F14: W 3.61 | R 4.33 | K 4.11 | N 4.49 | E 4.61 | T 4.11 | L 4.64 | P 4.66 | C 4.29

Variants of: B2
Test: as above
Conditions: c terminus: a fixed tail appended

Protein stability index of substitutions, site by site:
T1: A 2.32 | D 2.24 | E 2.9 | F 2.56 | G 2.05 | H 1.89 | K 2.37 | L 1.58 | M 1.31 | N 2.02 | P 2.54 | Q 2.37 | R 1.59 | S 1.41 | V 3.13 | W 1.65 | Y 2.13
L2: A 3.03 | C 2.16 | D 2.17 | E 3.08 | F 1.95 | G 2.5 | H 1.92 | I 2.35 | M 2.15 | N 2.31 | P 2.41 | Q 1.41 | R 2.77 | S 3.15 | T 2.2 | V 2.4 | W 1.92 | Y 1.71
V3: A 1.95 | C 1.94 | D 2.65 | E 2.86 | F 2 | G 1.58 | H 2.16 | I 3.34 | K 2.88 | L 2.22 | M 2.28 | N 2.21 | P 2.16 | Q 1.88 | R 2.23 | S 3.22 | T 2.53 | W 1.76 | Y 1.39
E4: A 1.37 | C 2.92 | D 1.68 | F 2.38 | G 2.26 | H 1.97 | I 1.57 | K 2.99 | L 1.93 | N 2.11 | P 2.08 | Q 1.97 | S 2.62 | T 1.58 | V 2.87 | W 1.76
A5: C 1.95 | D 2.54 | E 2.29 | F 1.89 | G 2.68 | H 1.98 | I 1.36 | K 1.89 | M 2.35 | N 2.11 | P 2.74 | Q 2.4 | R 2.29 | S 2.15 | T 2.88 | V 1.48 | W 2.84 | Y 2.73
I6: A 2.59 | C 2.24 | E 2.58 | F 2.38 | H 2.58 | K 2.2 | M 1.94 | N 2.2 | P 2.17 | Q 2.32 | R 2.16 | S 1.89 | T 2.01 | V 2.25 | W 1.38 | Y 1.81
K7: A 2.31 | C 1.98 | D 1.58 | E 2.34 | F 2.99 | G 1.79 | H 1.9 | I 2.28 | M 1.72 | N 1.51 | P 2.3 | Q 2.16 | R 1.03 | S 1.31 | T 2.19 | V 1.64 | W 2.15 | Y 3.52
E8: A 1.88 | D 2.08 | F 1.1 | G 2.37 | H 2.47 | I 1.3 | K 1.83
